Data from patent US20090149343.

Target: 48 discrete histone H3 peptides containing a wide range of histone modifications at defined residues (micro-array bound)

B1: recombinant human histone methyl-transferase SET 7/9 (protein)
chain: MDSDDEMVEEAVEGHLDDDGLPHGFCTVTYSSTDRFEGNFVHGEKNGRGKFFFFDGSTLEGYYVDDALQGQGVYTYEDGGVLQGTYVDGELNGPAQEYDTDGRLIFKGQYKDNIRHGVCWIYYPDGGSLVGEVNEDGEMTGEKIAYVYPDERTALYGKFIDGEMIEGKLATLMSTEEGRPHFELMPGNSVYHFDKSTSSCISTNALLPDPYESERVYVAESLISSAGEGLFSKVAVGPNTVMSFYNGVRITHQEVDSRDWALNGNTLSLDEETVIDVPEPYNHVSKYCASLGHKANHSFTPNCIYDMFVHPRFGPIKCIRTLRAVEADEELTVAYGYDHSPPGKSGPEAPEWYQVELKAFQATQQK
SET 7/9 dependent methylation of micro-array bound histone peptides, detected by anti-H3K4me1 antibody: also detects a large number of newly created additional sites containing this epitope after HMTase incubation
